Measured values as given in patent publication US20210047431A1 (DIACCURATE, published 2021).

B1: #22C6 (antibody, IgG2a, V domains shown)
VH: EVQLQESGPGLVKPSQTVSLNCTVTGHSITDDNYYWSWIRLVSGSKLEWIGYITSAGNTDNNPSLKSRISITRDISKNQFFLHLSSVTAEDTATYYCARDSTDGDFYFEKWGQGTTLTVSS
VL: EIVLTQSPTTMAASPGEKITITCSVSSSISPNFLHWYQQKPGFSPKLLIFRTSNLASGVPTRFSGSGSGTSYSLTIGTMEAEDVATYYCHQGNSLPLTFGAGTKLELKR
B2: #24B2 (antibody, IgG2a, V domains shown)
VH: DVQVQESGPGLVKPSQTVSLNCTVTGHSITDDNYYWSWIRLVSGSKLEWIGYITSSGSTDINPSLKSRISITRDISKNQFFLHLNSVTAEDTATYYCARDSTDGDFYFEKWGQGTTLTVSS
VL: DIVLTQSPASLAVSLGQRATISCRASESVDNYGISFMHWYQQKPGQPPKLLIYRASNLESGIPARFSGSGSRTDFTLTINPVETDDVATYYCQQSSRDLFTFGGGTKLEIKR
B3: #1C11 (antibody, IgG1, V domains shown)
VH: EVKLQESGPELVKPGASVKISCKVSGYAFSSFWMNWVKQRPGKGLEWIGRIYPGDGDINYNGKFKGKATLTADKSSSTAYMQLSSLTSEDSAVYFCVRGWAWFPYWGQGTLVTVSA
VL: EIVLTQSPAITSASLGQRVTISCSATSSVSYVHWYQQKSGTSPKPWIYEISRLASGVPARFSGSGSGTSYSLTISTMEAEDAAIYYCQSWNFPLLSFGAGTKLELKR
notes: also called monoclonal antibody 1C11; #1C11 mAb
B4: #14G9 (antibody, IgG1, V domains shown)
VH: QVQLQQPGAELVKPGASVKLSCKASGYTFTNYWIHWVKRRPGQGLEWIGNIDPSDTRTHYNQKFKDKATLAVDKSSSTAYMQLSSLTSEDSAVFYCARQTLYYEALDYWGQGTTLTVSS
VL: DIVMTQSHKLMSTSVGDRVSITCKASQDVSTAVAWYQEKPGQSPKLLIYWASTRHTGVPNRFTGSRSGTDYTLTISSVQAEDLALYYCQQDYSTPPTFGAGTKLELKR
notes: also called monoclonal antibody 14G9; #14G9 mAb
B5: #7A10 (antibody, IgG1, V domains shown)
VH: QVQLKESGPGLVAPSQSLSITCTVSGFSLTSYGVSWVRQPPGKGLEWLGVIWGDGSTNYHSALISRLSISKDNSKSQVFLKLNSLQTDDTATYYCAKEGGLRRGVYFDYWGQGTTLTVSS
VL: DIQMNQSPSSLSASLGDTITITCRASQGISIWLDWYQQKPGNIPKLLIYKASNLHTGVPPRFSGSGSGTDFTLTISSLQPEDIATYYCLQSQSYPLTFGAGTKLELKR
notes: also called monoclonal antibody 7A10; #7A10 mAb

Legend:
[1] = target: T1, recombinant human sPLA2-GIB (mature secreted form of group IB pancreatic phospholipase A2) (human, UniProt P04054 23-148); test: competition ELISA on coated sPLA2-IB; competitor biotinylated 7A10
T1 construct: Genbank NP_000919 printed for human PLA2-GIB; also called sPLA2-IB; mature sPLA2-GIB
Description: (§1) Epitope mapping of the #14G9, #1C11, #8G11 and #7A10 mAbs was evaluated by competition ELISA. Biotinylated mAbs #14G9, #1C11, #8G11 or #7A10 were added to sPLA2-GIB or pro-sPLA2-GIB coated plates in the presence of an excess of un-biotinylated mAb. Bound mAbs were then detected with Streptavidin-HRP conjugate. Results were expressed as percentage of signal, after subtraction of the autologous competition, with 0% representing maximum competition and 100% no competition (Table 4).

[2] = target: T1, recombinant human sPLA2-GIB (mature …); test: cell-based or functional assay
[3] = target: T1, recombinant human sPLA2-GIB (mature …); test: competition ELISA on coated sPLA2-IB; competitor biotinylated 14G9
Description: as §1

[4] = target: T1, recombinant human sPLA2-GIB (mature …); test: competition ELISA on coated sPLA2-IB; competitor biotinylated 1C11
Description: as §1

[5] = target: T2, recombinant human pro-sPLA2-GIB (pro form of group IB pancreatic phospholipase A2) (human, UniProt P04054 16-148); test: competition ELISA on coated pro-sPLA2-IB; competitor biotinylated 1C11
T2 construct: also called pro-sPLA2-IB; proPLA2-GIB
Description: as §1

[6] = target: T1, recombinant human sPLA2-GIB (mature …); test: indirect ELISA, coated antigen
Description: (§2) Microplate wells were typically coated with 100 ng of recombinant human sPLA2-GIB or pro-sPLA2-GIB in PBS pH 7.5, overnight at 4° C. Sample wells were washed three times with PBS containing 0.05% Tween 20. After final washing, sample wells were treated with blocking solution containing 1% bovine serum albumin (BSA) in PBS buffer for 60 min at room temperature. Following washing with PBS containing 0.05% Tween 20, increasing amounts (10 ng/mL up to 3 μg/mL) of mAb directed against human pro-sPLA2-GIB or sPLA2-GIB were added to antigen-coated wells. and incubated for 120 min at room temperature. Following washing with PBS containing 0.05% Tween 20, the binding of mAb was detected with an HRP-conjugated goat anti-mouse IgG or IgA polyclonal antibody reagent and developed using colorimetric substrate. The dependency of the signals on the […] was analyzed with a 4-parameter fit analysis using Prism™ software (Graph Pad) and reported as EC50.

[7] = target: T2, recombinant human pro-sPLA2-GIB (pro …); test: indirect ELISA, coated antigen
Description: as §2

[8] = target: T2, recombinant human pro-sPLA2-GIB (pro …); test: competition ELISA on coated pro-sPLA2-IB; competitor biotinylated 7A10
Description: as §1

[9] = target: T2, recombinant human pro-sPLA2-GIB (pro …); test: competition ELISA on coated pro-sPLA2-IB; competitor biotinylated 8G11
Description: as §1

[10] = target: T1, recombinant human sPLA2-GIB (mature …); test: SPR (BIAcore 2000), mAb captured on anti-mouse IgG, antigen in solution
Description: (§3) The affinity constant (KD) of the pro-sPLA2-GIB and sPLA2-GIB binding to the selected antibodies described above were determined by surface kinetics on a real-time biosensor surface plasmon resonance assay (BIAcore™). More specifically, the affinity of the antibodies for human pro-sPLA2-GIB and sPLA2-GIB was measured using a BIAcore® 2000. The antibody was captured on an anti-mouse IgG surface and exposed to various concentrations of recombinant pro-sPLA2-GIB and sPLA2-GIB protein. Kinetic analysis using BlAevaluation™ software was performed to obtain the association and dissociation rate constants.
as §3, with “constants (Table 3).” for “constants.”

[11] = target: T2, recombinant human pro-sPLA2-GIB (pro …); test: as above
Description: as §3
as §3, with “constants (Table 3).” for “constants.”

[12] = target: T1, recombinant human sPLA2-GIB (mature …); test: competitive ELISA: mAb premixed with serial dilutions of soluble antigen, free mAb read on antigen-coated plate
Description: (§4) Binding affinities of the antibodies to pro-sPLA2-GIB and sPLA2-GIB were measured by plate-based competition immunoassay. For the competition ELISA, briefly, constant amounts of antibody at different levels were premixed with serial dilutions of antigen protein, human sPLA2-GIB or pro-sPLA2-GIB, ranging from 0 to 10 μg/ml, and incubated for two hours at room temperature to reach pseudo-binding equilibrium between the antibody and antigen. These solutions were then transferred to 96-well sPLA2-GIB or pro-sPLA2-GIB pre-coated plates to allow the free-antibody in the mixtures to bind to plate-coated sPLA2-GIB or pro-sPLA2-GIB. The plates were typically coated with 30 to 100 ng of human sPLA2-GIB or pro-sPLA2-GIB protein in PBS solution overnight at 4° C. followed by BSA nonspecific blocking. After washing off excess antibody in solution, plate-bound antibodies were detected with an HRP-conjugated goat anti-mouse IgG or IgA polyclonal antibody reagent and developed using colorimetric substrate. The dependency of the signals on the concentrations of antigen in solution was analyzed with a 4-parameter fit analysis using Prism™ software (Graph Pad) and reported as IC50.
(§5) The respective binding affinities of the antibodies to human pro-sPLA2-GIB and human sPLA2-GIB were measured by plate-based competition immunoassay. Briefly, constant amounts of antibody at different levels were premixed with serial dilutions of antigen proteins to reach pseudo-binding equilibrium between the antibody and antigen. These solutions were then transferred to antigen pre-coated plates to allow the free-antibody in the mixtures to bind to plate-coated sPLA2-GIB or pro-sPLA2-GIB. Plate-bound antibodies were detected with an HRP-conjugated polyclonal antibody. Data were fitted with a 4PL logistic non-linear regression model and the relative IC50 values were estimated from the model (Table 2).

[13] = target: T2, recombinant human pro-sPLA2-GIB (pro …); test: as above
Description: as §4, §5

[14] = target: T1, recombinant human sPLA2-GIB (mature …); test: cell-based or functional assay; remark: listed apart in the source
[15] = target: T2, recombinant human pro-sPLA2-GIB (pro …); test: SPR (BIAcore 2000), mAb captured on anti-mouse IgG, antigen in solution; SPR, mAb captured, pro-sPLA2-GIB in solution
Description: as §3
as §3, with “constants (Table 3).” for “constants.”

[16] = target: T2, recombinant human pro-sPLA2-GIB (pro …); test: competitive ELISA: mAb premixed with serial dilutions of soluble antigen, free mAb read on antigen-coated plate; competitive ELISA, soluble pro-sPLA2-IB
Description: as §4, with “The plates were typically coated with 30 to 100 ng of human sPLA2-GIB or pro-sPLA2-GIB protein in PBS solution overnight at 4° C. followed by BSA nonspecific blocking.” left out
The respective binding affinities of the antibodies to human pro-sPLA2-GIB and human sPLA2-GIB were measured by plate-based competition immunoassay. […] Plate-bound antibodies were detected with an HRP-conjugated polyclonal antibody. […]

[17] = target: T2, recombinant human pro-sPLA2-GIB (pro …); test: indirect ELISA, coated antigen; indirect ELISA, pro-sPLA2-IB coated on the plate
Description: as §2

T2 sequence (P04054 16-148): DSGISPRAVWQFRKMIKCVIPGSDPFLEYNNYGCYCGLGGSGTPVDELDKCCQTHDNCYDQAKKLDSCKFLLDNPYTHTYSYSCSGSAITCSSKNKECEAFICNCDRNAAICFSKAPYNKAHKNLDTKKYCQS
T1 sequence (P04054 23-148): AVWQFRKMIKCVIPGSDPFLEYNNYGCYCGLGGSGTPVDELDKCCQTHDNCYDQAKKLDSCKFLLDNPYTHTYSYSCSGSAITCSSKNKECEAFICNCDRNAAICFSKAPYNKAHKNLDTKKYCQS

Binder	percentage of signal [1]	Enzymatic Activity Inhibition (% of Control) [2]	percentage of signal [3]	percentage of signal [4]	percentage of signal [5]	EC50 [6]	EC50 [7]	percentage of signal [8]	percentage of signal [9]	Kd [10]	koff [10]	kon [10]	t1/2 [10]	Kd [11]	koff [11]	kon [11]	t1/2 [11]	IC50 [12]	IC50 [13]	further results
B1	53%	3%	2%	56%	18%	22 nM	117 nM	141%	39%											
B2	65%	5%	17%	61%	23%	15 nM	81 nM	135%	64%											
B3	1150%	110%	1440%			3 nM	4 nM	314%	496%	0.0644 nM	0.000309 s⁻¹	4.79e+06 M⁻¹ s⁻¹	53.9 min	0.151 nM	0.000405 s⁻¹	2.7e+06 M⁻¹ s⁻¹	41.2 min	3.8 nM	2.4 nM	
B4	12%	5%		64%	69%	6 nM		141%	73%	0.338 nM	0.000549 s⁻¹	1.63e+06 M⁻¹ s⁻¹	30.4 min					1 nM		IC50 of inhibition of sPLA2-GIB enzymatic activity (sPLA2 Activity in U/mL against #14G9 mAb in Log M, 4PL fit) [14]: 2.3 nM; Kd [15]: 174 nM; koff [15]: 0.0506 s⁻¹; kon [15]: 301000 M⁻¹ s⁻¹; t1/2 [15]: 0.3 min; IC50 [16]: 109 nM; EC50 [17]: 158 nM
B5		51%	58%	19%	18%	77 nM	13 nM		93%	3.83 nM	0.000444 s⁻¹	118000 M⁻¹ s⁻¹	37.5 min	3.79 nM	0.000407 s⁻¹	110000 M⁻¹ s⁻¹	41 min	5.3 nM	4.3 nM	
